Experiments:
[1] = biological target: CD63(ECD)-ALP conjugate (human; bovine); assay: HI-1000 capture immunoassay; calibrator C1, 2.5 ng/mL; run 1
[2] = biological target: CD63(ECD)-ALP conjugate (human; bovine); assay: HI-1000 capture immunoassay; calibrator C1, 2.5 ng/mL; run 2
[3] = biological target: CD63(ECD)-ALP conjugate (human; bovine); assay: HI-1000 capture immunoassay; calibrator C1, 2.5 ng/mL; run 3
[4] = biological target: CD63(ECD)-ALP conjugate (human; bovine); assay: HI-1000 capture immunoassay; calibrator C4, 313 ng/mL; run 1
[5] = biological target: CD63(ECD)-ALP conjugate (human; bovine); assay: HI-1000 capture immunoassay; calibrator C4, 313 ng/mL; run 2
[6] = biological target: CD63(ECD)-ALP conjugate (human; bovine); assay: HI-1000 capture immunoassay; calibrator C4, 313 ng/mL; run 3
[7] = biological target: CD63(ECD)-ALP conjugate (human; bovine); assay: HI-1000 capture immunoassay; calibrator C1, 1.43 mU/L; run 1
[8] = biological target: CD63(ECD)-ALP conjugate (human; bovine); assay: HI-1000 capture immunoassay; calibrator C1, 1.43 mU/L; run 2
[9] = biological target: CD63(ECD)-ALP conjugate (human; bovine); assay: HI-1000 capture immunoassay; calibrator C1, 1.43 mU/L; run 3
[10] = biological target: CD63(ECD)-ALP conjugate (human; bovine); assay: HI-1000 capture immunoassay; calibrator C2, 5.71 mU/L; run 1
[11] = biological target: CD63(ECD)-ALP conjugate (human; bovine); assay: HI-1000 capture immunoassay; calibrator C2, 5.71 mU/L; run 2
[12] = biological target: CD63(ECD)-ALP conjugate (human; bovine); assay: HI-1000 capture immunoassay; calibrator C2, 5.71 mU/L; run 3
[13] = biological target: CD63(ECD)-ALP conjugate (human; bovine); assay: HI-1000 capture immunoassay; calibrator C2, 12.5 ng/mL; run 1
[14] = biological target: CD63(ECD)-ALP conjugate (human; bovine); assay: HI-1000 capture immunoassay; calibrator C2, 12.5 ng/mL; run 2
[15] = biological target: CD63(ECD)-ALP conjugate (human; bovine); assay: HI-1000 capture immunoassay; calibrator C2, 12.5 ng/mL; run 3
[16] = biological target: CD63(ECD)-ALP conjugate (human; bovine); assay: HI-1000 capture immunoassay; calibrator C3, 62.5 ng/mL; run 1
[17] = biological target: CD63(ECD)-ALP conjugate (human; bovine); assay: HI-1000 capture immunoassay; calibrator C3, 62.5 ng/mL; run 2
[18] = biological target: CD63(ECD)-ALP conjugate (human; bovine); assay: HI-1000 capture immunoassay; calibrator C3, 62.5 ng/mL; run 3
[19] = biological target: CD63(ECD)-ALP conjugate (human; bovine); assay: HI-1000 capture immunoassay; calibrator C5, 1563 ng/mL; run 1
[20] = biological target: CD63(ECD)-ALP conjugate (human; bovine); assay: HI-1000 capture immunoassay; calibrator C5, 1563 ng/mL; run 2
[21] = biological target: CD63(ECD)-ALP conjugate (human; bovine); assay: HI-1000 capture immunoassay; calibrator C5, 1563 ng/mL; run 3
[22] = biological target: CD63(ECD)-ALP conjugate (human; bovine); assay: HI-1000 capture immunoassay; calibrator C3, 22.84 mU/L; run 1
[23] = biological target: CD63(ECD)-ALP conjugate (human; bovine); assay: HI-1000 capture immunoassay; calibrator C3, 22.84 mU/L; run 2
[24] = biological target: CD63(ECD)-ALP conjugate (human; bovine); assay: HI-1000 capture immunoassay; calibrator C3, 22.84 mU/L; run 3
[25] = biological target: CD63(ECD)-ALP conjugate (human; bovine); assay: HI-1000 capture immunoassay; calibrator C4, 91.36 mU/L; run 1
[26] = biological target: CD63(ECD)-ALP conjugate (human; bovine); assay: HI-1000 capture immunoassay; calibrator C4, 91.36 mU/L; run 2
[27] = biological target: CD63(ECD)-ALP conjugate (human; bovine); assay: HI-1000 capture immunoassay; calibrator C4, 91.36 mU/L; run 3
[28] = biological target: CD63(ECD)-ALP conjugate (human; bovine); assay: HI-1000 capture immunoassay; calibrator C5, 365.43 mU/L; run 1
[29] = biological target: CD63(ECD)-ALP conjugate (human; bovine); assay: HI-1000 capture immunoassay; calibrator C5, 365.43 mU/L; run 2
[30] = biological target: CD63(ECD)-ALP conjugate (human; bovine); assay: HI-1000 capture immunoassay; calibrator C5, 365.43 mU/L; run 3
[31] = biological target: CD63(ECD)-ALP conjugate (human; bovine); assay: HI-1000 capture immunoassay; calibrator C1, 2.5 ng/mL; mean of 3
[32] = biological target: CD63(ECD)-ALP conjugate (human; bovine); assay: HI-1000 capture immunoassay; calibrator C4, 313 ng/mL; mean of 3
[33] = biological target: CD63(ECD)-ALP conjugate (human; bovine); assay: HI-1000 capture immunoassay; calibrator C1, 1.43 mU/L; mean of 3
[34] = biological target: CD63(ECD)-ALP conjugate (human; bovine); assay: HI-1000 capture immunoassay; calibrator C2, 5.71 mU/L; mean of 3
[35] = biological target: CD63(ECD)-ALP conjugate (human; bovine); assay: HI-1000 capture immunoassay; calibrator C2, 12.5 ng/mL; mean of 3
[36] = biological target: CD63(ECD)-ALP conjugate (human; bovine); assay: HI-1000 capture immunoassay; calibrator C3, 62.5 ng/mL; mean of 3
[37] = biological target: CD63(ECD)-ALP conjugate (human; bovine); assay: HI-1000 capture immunoassay; calibrator C5, 1563 ng/mL; mean of 3
[38] = biological target: CD63(ECD)-ALP conjugate (human; bovine); assay: HI-1000 capture immunoassay; calibrator C3, 22.84 mU/L; mean of 3
[39] = biological target: CD63(ECD)-ALP conjugate (human; bovine); assay: HI-1000 capture immunoassay; calibrator C4, 91.36 mU/L; mean of 3
[40] = biological target: CD63(ECD)-ALP conjugate (human; bovine); assay: HI-1000 capture immunoassay; calibrator C5, 365.43 mU/L; mean of 3

Chain of CD63(ECD)-ALP conjugate (human; bovine) (chain, as listed by the source, chain 1 of 2): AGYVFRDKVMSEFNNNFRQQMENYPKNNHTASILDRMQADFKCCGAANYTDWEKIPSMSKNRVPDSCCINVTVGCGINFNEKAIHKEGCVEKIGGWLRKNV
Chain of CD63(ECD)-ALP conjugate (human; bovine) (P19111 20-506, chain 2 of 2): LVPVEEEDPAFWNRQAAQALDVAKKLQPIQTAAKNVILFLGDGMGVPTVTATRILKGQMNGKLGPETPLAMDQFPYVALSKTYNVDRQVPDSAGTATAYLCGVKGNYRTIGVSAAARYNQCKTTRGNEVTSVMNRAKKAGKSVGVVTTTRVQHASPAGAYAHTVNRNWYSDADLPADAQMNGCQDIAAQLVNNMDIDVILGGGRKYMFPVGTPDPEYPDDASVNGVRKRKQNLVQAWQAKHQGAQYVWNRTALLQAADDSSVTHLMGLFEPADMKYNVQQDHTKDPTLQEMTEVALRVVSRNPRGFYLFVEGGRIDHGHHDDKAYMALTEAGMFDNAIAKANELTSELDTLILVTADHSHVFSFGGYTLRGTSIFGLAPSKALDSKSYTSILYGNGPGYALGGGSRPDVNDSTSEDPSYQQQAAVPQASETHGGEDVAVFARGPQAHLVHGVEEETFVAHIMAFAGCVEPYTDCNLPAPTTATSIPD

anti-CD63 antibody (Clone: H5C6)
Count [1]: 770 count
Count [2]: 751 count
Count [3]: 743 count
Count [4]: 41700 count
Count [5]: 41300 count
Count [6]: 42800 count
Count value [7]: 900 count
Count value [8]: 871 count
Count value [9]: 916 count
Count value [10]: 2260 count
Count value [11]: 2380 count
Count value [12]: 2240 count
Count [13]: 2160 count
Count [14]: 2120 count
Count [15]: 2260 count
Count [16]: 8690 count
Count [17]: 9250 count
Count [18]: 8490 count
Count [19]: 218000 count
Count [20]: 205000 count
Count [21]: 213000 count
Count value [22]: 9140 count
Count value [23]: 9240 count
Count value [24]: 9080 count
Count value [25]: 43000 count
Count value [26]: 42200 count
Count value [27]: 42700 count
Count value [28]: 206000 count
Count value [29]: 212000 count
Count value [30]: 207000 count
Count (av) [31]: 755 count
Count (av) [32]: 41900 count
Count value (av) [33]: 896 count
Count value (av) [34]: 2290 count
Count (av) [35]: 2180 count
Count (av) [36]: 8810 count
Count (av) [37]: 212000 count
Count value (av) [38]: 9160 count
Count value (av) [39]: 42600 count
Count value (av) [40]: 208000 count

From US20240118272A1
